The labels stand for the following.
B1: CPEB3 Ribozyme (parent)
chain: GGGGGCCACAGCAGAAGCGUUCACGUCGCGGCCCCUGUCAGAUUCUGGUGAAUCUGCGAAUUCUGCUGU

Variants of B1 are the subject of this data set. Kind of data set: self-cleavage, relative activity (ratio to wild type); higher = more cleavage; co-transcriptional.
As for U20G G37A, the self-cleavage stood at 0.173. The same measure for U20G G37C: 0.151; for U20G C29G: 0.128; for U20G C29A: 0.198.

Consider G19U G50C, for which the self-cleavage is 0.458.

As for G19U G50A, the self-cleavage worked out at 0.543.

With U20G U26C, the self-cleavage is 0.114. The result for U20C G25C reads 0.249; that for U20C G25A, 0.68. The result for U20C G25U reads 0.616; that for U20A C45U, 0.144; that for U20G C24U, 0.144. The same measure for U20G C24G: 0.146; for U20A G50U: 0.141; for U20A G50C: 0.188. Consider U20C C35G, for which the self-cleavage is 0.129. The result for U20C C35U reads 0.145; that for U20C C35A, 0.169. As for U20A U43C, the self-cleavage is 0.154. For U20A U43G, the self-cleavage is 0.123. The same measure for U20C U21A: 0.208; for U20C U67A: 0.233. Take U20C U67G: the self-cleavage was found to be 0.164. For G19U U20C, the self-cleavage worked out at 0.166. Take G19U U20A: the self-cleavage was 0.0978. With U20A C35A, the self-cleavage was 0.115. The same measure for U20A C35G: 0.183; for G19U U62C: 0.256; for G19U U62G: 0.251. The same measure for G19U U62A: 0.244; for G19U G68U: 0.738; for G19U G68C: 0.791. The result for U20C G50U reads 0.245; that for U20A A42G, 0.0639. For the variant U20A A42C, the self-cleavage worked out at 0.0988. The result for U20A U61C reads 0.137. As for U20A U61G, the self-cleavage came to 0.137.

On to U20A U61A, for which the self-cleavage was 0.123. The same measure for U20C C33A: 0.286. The same measure for U20C C33G: 0.113; for U20C C33U: 0.219; for U20A G41C: 0.133. For the variant U20G G65A, the self-cleavage turned out to be 0.155.

On to U20G G65U, for which the self-cleavage came to 0.262. For U20A G48A, the self-cleavage was 0.124. As for G19U U21C, the self-cleavage is 0.218. Consider U20A U36G, for which the self-cleavage is 0.201. The result for U20A U36C reads 0.149. G19U U38A: the self-cleavage turned out to be 0.227. The same measure for G19U U38G: 0.201; for U20A A52U: 0.143; for U20A A52C: 0.0922.

For the variant U20A A52G, the self-cleavage was determined as 0.117. For U20G U21A, the self-cleavage came out at 0.252. The result for U20G U21G reads 0.148. The same measure for G19U U55C: 0.191; for U20A A51U: 0.153. On to U20A A51G, for which the self-cleavage worked out at 0.186.

As to U20A A51C, the self-cleavage was determined as 0.151. In the case of U20C A60U, the self-cleavage worked out at 0.208. The result for U20C A60C reads 0.142; that for U20C A60G, 0.166; that for U20C C57G, 0.261. With U20A G30U, the self-cleavage was found to be 0.109. With U20A G30C, the self-cleavage is 0.141.

As to U20A G30A, the self-cleavage is 0.192. The result for U20G C45U reads 0.202.

Take U20G C45A: the self-cleavage was 0.221. Turning to U20G C45G, the self-cleavage was found to be 0.11. The same measure for U20C U55A: 0.175; for U20A U38G: 0.23; for U20A U44G: 0.204. For the variant U20A U44A, the self-cleavage amounted to 0.15. Regarding U20A U44C, the self-cleavage stood at 0.139. On to U20A G65C, for which the self-cleavage is 0.113. The same measure for U20A G65U: 0.19. The same measure for G19U G65C: 0.287; for G19U G65A: 0.254. Turning to G19U G65U, the self-cleavage was 0.148. Consider U20C G47A, for which the self-cleavage came to 0.243. The same measure for U20C G47C: 0.188; for U20C G47U: 0.239. The same measure for U20C C54U: 0.182; for U20C C54G: 0.206; for U20G C35U: 0.171. The result for U20G C35G reads 0.184; that for U20G C35A, 0.218. Consider U20G G47U, for which the self-cleavage is 0.226.

As for U20G G47C, the self-cleavage came to 0.189. The same measure for U20G G47A: 0.247; for U20A G28U: 0.182.

For U20A G28C, the self-cleavage amounted to 0.14. For U20A G28A, the self-cleavage was 0.12. The result for U20G G56U reads 0.199. For U20G G56A, the self-cleavage stood at 0.191. On to U20G G56C, for which the self-cleavage is 0.104. As for G19U U26G, the self-cleavage came to 0.256. On to G19U U26C, for which the self-cleavage was 0.256. The result for G19U U26A reads 0.272; that for G19U U61C, 0.194. The result for G19U U61G reads 0.262; that for G19U U61A, 0.217; that for U20A G58U, 0.152. Take U20A G58A: the self-cleavage turned out to be 0.208. U20G U38C: the self-cleavage came to 0.185.

Take U20G U38A: the self-cleavage was determined as 0.288. Take U20G G30A: the self-cleavage amounted to 0.126.

For the variant U20G A52U, the self-cleavage was 0.183. On to U20G A52C, for which the self-cleavage was 0.148.

Take U20G A52G: the self-cleavage was found to be 0.292. The same measure for U20G A60U: 0.073; for U20G A60G: 0.0625; for U20G A60C: 0.191. The result for U20C C45U reads 0.201; that for U20C C45G, 0.217. The same measure for U20C C45A: 0.219. Take U20A U55G: the self-cleavage amounted to 0.112. The same measure for U20A U55A: 0.237. U20A U55C: the self-cleavage was 0.118. For U20C C66U, the self-cleavage amounted to 0.272.

Turning to U20C C66A, the self-cleavage turned out to be 0.204. The same measure for U20A C54U: 0.124.

Regarding U20A C54G, the self-cleavage was 0.194. In the case of G19U U64G, the self-cleavage came to 0.192. The result for G19U U64C reads 0.249. The same measure for G19U U64A: 0.233; for U20C G30C: 0.178; for U20C G30U: 0.153. As for U20C G56A, the self-cleavage was determined as 0.223. In the case of U20A C57A, the self-cleavage worked out at 0.195. The result for U20A C57G reads 0.092; that for U20A C57U, 0.152. With U20A C32U, the self-cleavage amounted to 0.148. The result for U20A C32A reads 0.153.

For the variant U20A C32G, the self-cleavage came out at 0.171. In the case of U20C G41A, the self-cleavage came out at 0.247.

Regarding U20C G41C, the self-cleavage was determined as 0.139. Regarding U20C G41U, the self-cleavage came to 0.137. The result for U20A U62A reads 0.0929; that for U20C U26A, 0.205; that for U20C U26C, 0.235.

Turning to U20C U26G, the self-cleavage came out at 0.114.

As to U20A U49A, the self-cleavage turned out to be 0.125. As to U20C A23C, the self-cleavage stood at 0.243. The same measure for U20C A23U: 0.257; for U20A C39U: 0.125. For the variant U20A C39A, the self-cleavage worked out at 0.169. The same measure for U20C A51G: 0.272; for U20G A51G: 0.193.

For the variant U20A G25C, the self-cleavage was 0.165. In the case of U20A G25A, the self-cleavage came to 0.198. The same measure for U20A G25U: 0.135; for G19U U43C: 0.333; for G19U U43A: 0.202. In the case of G19U U43G, the self-cleavage is 0.223. The same measure for U20G G28C: 0.145; for U20G G28A: 0.186. The same measure for G19U U44G: 0.398; for G19U U44A: 0.354; for U20C C63U: 0.229. The result for U20C C63G reads 0.162; that for U20C C63A, 0.138. U20A C22U: the self-cleavage was 0.176. U20A C22G: the self-cleavage was found to be 0.119.

On to U20A C22A, for which the self-cleavage came out at 0.152. The same measure for U20A U67G: 0.271; for U20A U67C: 0.127.

The values above are taken from the RNAGym collection of RNA variant scans (doi:10.7554/elife.80360).
